This is an account of results in article PMC3989777 (Cell Reports, 2014).

Where a SMILES comes first, the peptide text is derived from it. Where no end group is shown, it is not given here. [ ]: non-standard residue; d: D form. pS = N[C@@H](COP(=O)(O)O)C(=O)O

The target of assay [1] is PIH1D1 (1-180) (Homo sapiens, UniProt Q9NWS0). The assay can be described thus: ITC of phosphopeptide binding to PIH1D1 1-180.
Assay [2] deals with PIH1D1 1–180 (human, UniProt Q9NWS0 1-180). Nature of the assay: ITC. In general terms: In ITC the heat of successive injections is recorded.
PIH1D1 1–180, sequence (Q9NWS0 1-180): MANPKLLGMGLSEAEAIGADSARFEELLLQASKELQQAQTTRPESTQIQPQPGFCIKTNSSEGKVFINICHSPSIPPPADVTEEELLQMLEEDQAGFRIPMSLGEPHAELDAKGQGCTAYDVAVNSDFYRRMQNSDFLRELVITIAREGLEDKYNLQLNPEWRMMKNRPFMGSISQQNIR

PIH1D1 (1-180), sequence (Q9NWS0 1-180): as above

As for `CC(C)C[C@H](NC(=O)[C@H](CC(=O)O)NC(=O)[C@H](COP(=O)(O)O)NC(=O)[C@H](CC(=O)O)NC(=O)[C@H](CO)NC(=O)CNC(=O)[C@H](C)NC(=O)[C@@H](N)Cc1ccc(O)cc1)C(=O)N[C@@H](CC(=O)O)C(=O)N[C@@H](COP(=O)(O)O)C(=O)N[C@@H](CC(=O)O)C(=O)N[C@@H](CC(=O)O)C(=O)N[C@@H](CCC(=O)O)C(=O)N[C@@H](Cc1ccccc1)C(=O)N[C@H](C(=O)N1CCC[C@H]1C(=O)N[C@@H](Cc1ccc(O)cc1)C(N)=O)C(C)C` (H-YAGSD[pS]DLD[pS]DDEFVPY-NH2), the “higher affinity relative to the TEL2 peptide phosphorylated on Ser491” value in assay [1] is 2- to 3 fold.
Usually Kd stands for the free concentration of one partner at which half of the binding sites on the other are occupied at equilibrium, for simple one-to-one binding. As for YAGSDSDLD[pS]DDEFVPY (also: phosphoserine at Ser491, place not mappable) [TEL2 peptide phosphorylated on Ser491], in assay [2], the Kd turned out to be 3.5 µM.
Still for that read-out and setting: with RPNESD[pS]DDLDDY [ECD peptide RPNESDpS505DDLDDY] the figure was 16 µM.
